Consider one substance from article PMC10588934.

This test has as its target dopamine receptor D1 fused to LgBiT (UniProt P21728). As to the kind of experiment: split reporter.
UniProt P21728, sequence (P21728 whole entry, the tested form may be a part): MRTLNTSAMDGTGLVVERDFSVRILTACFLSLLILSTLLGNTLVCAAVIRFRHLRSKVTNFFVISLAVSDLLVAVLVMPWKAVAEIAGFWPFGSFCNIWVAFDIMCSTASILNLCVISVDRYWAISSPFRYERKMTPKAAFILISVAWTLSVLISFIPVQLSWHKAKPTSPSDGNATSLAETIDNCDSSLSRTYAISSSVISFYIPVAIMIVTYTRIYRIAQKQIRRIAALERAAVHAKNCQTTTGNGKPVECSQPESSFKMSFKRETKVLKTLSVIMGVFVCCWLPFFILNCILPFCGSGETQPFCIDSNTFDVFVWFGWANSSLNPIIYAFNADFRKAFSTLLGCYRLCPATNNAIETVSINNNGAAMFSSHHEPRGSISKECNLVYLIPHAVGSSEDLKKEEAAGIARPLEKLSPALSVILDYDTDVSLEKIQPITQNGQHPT

Turning to SmBiT-miniGs (domain or fragment), the DDR (luminescence with drug / without drug) turned out to be 1.6.
